In patent US11702666B2, “Cell-based assay for determining activity in the retinoblastoma pathway” (Medical Diagnostic Laboratories, LLC, priority 2017, dated 2023):

Test system: E2F1/Dp-1 heterodimer
Assay: Rb activity assay (LB-Rb with E2F1-SB, DP1 split luciferase)
Format: cell-based, human
Parameters: key to Observed activity: N—no activity; A—active as WT; R—reduced activity compared to the WT
Conditions: Rb mutants; for % (/wt): activity relative to WT
Description: An assay that could measure the interaction between Rb, E2F1, and Dp-1 was developed. Since Dp-1 forms a heterodimer with E2F1 and that interaction is crucial for Rb/E2F1 binding, the assay was comprised of three components. When two proteins (Rb and E2F1) are in close proximity or in complex, a light signal was observed. For the purposes of the current assay, split-luciferase complementation was used to measure the interaction between Rb and E2F1. The NanoBiT assay system by Promega (Madison, Wis.; Dixon et al., 2015, ACS ChemBiol) was used in our split luciferase complementation design.
FIG. 16 depicts the design of a signal system to measure Rb activity. Under basal conditions inside the cell, Rb was active and interacted with the E2F1/Dp-1 heterodimer. For this assay design, cDNAs of Rb linked to different parts of the luciferase protein, either termed as the “Small BiT” (SB), or “Large BiT” (LB) and E2F1 linked to the opposite portion of the luciferase protein were created. When Rb and E2F1/Dp-1 bind, the NanoBiT parts of the luciferase form a complex and emitted a light signal when the luciferase (NanoGlo) substrate was added.
Using the described assay design, HEK293 CDK DKO cells were transiently transfected with different combinations of SB-Rb or LB-Rb and E2F1-LB or E2F1-SB components containing C-terminal and N-terminal constructs (FIG. 17). Relative intensities generated are presented in FIG. 17 as relative luminescence units (RLU). The data represents a sample experiment where each condition was performed in triplicate and represent mean+SD.
The LB-Rb and E2F1-SB with Dp-1 were tested for Rb activity using known Rb null mutants: R661W and C706F (FIG. 18A). […] Rb in-frame (del35) and out-of frame (del1) deletion mutants (FIG. 18B) were constructed and the observed luciferase activity was close to 0, in particular for del1 mutant, because Rb-E2F1 binding was destroyed.
Within the provided assay design, stable cell lines using the HEK293 CDK DKO cell parent line expressing E2F1-SB and Dp-1 were produced. After selection and screening for positive clones using an LB-Rb-mediated increase in signal, four stable single cell clones were selected and evaluated using different Rb mutants (FIGS. 19A and 19B). The response to E2F1 interaction was also checked by using the plasmid and linear form of DNA. Cell line #37 was selected for all our experiments in assay development due to its favorable response.
The conditions of the assay were further optimized by analyzing different cell numbers and Rb concentrations (FIG. 20). Based on the data, it was decided to use 0.2×10^6 cells/ml and 70 ng of DNA in the assay.
Known null and out/in-frame deletion mutants disrupting E2F1 binding and unknown COSMIC mutants were created to examine the ability of the assay to detect variants in Rb that affect function. We transfected WT or mutated Rb using similar conditions as previously indicated (FIG. 20). […] In addition, the null C706F and deletion (del1) mutants presented a signal close to zero as expected for loss of function mutants that disrupt E2F1 interaction. […] This confirmed that the assay was capable of determining the relative activity level of Rb mutants. The data is provided in Luminescence (RLU) of a single experiment with each condition performed in triplicate and represent average+SD.

Sequence of E2F1/Dp-1 heterodimer (Q01094 58-437 limits assumed): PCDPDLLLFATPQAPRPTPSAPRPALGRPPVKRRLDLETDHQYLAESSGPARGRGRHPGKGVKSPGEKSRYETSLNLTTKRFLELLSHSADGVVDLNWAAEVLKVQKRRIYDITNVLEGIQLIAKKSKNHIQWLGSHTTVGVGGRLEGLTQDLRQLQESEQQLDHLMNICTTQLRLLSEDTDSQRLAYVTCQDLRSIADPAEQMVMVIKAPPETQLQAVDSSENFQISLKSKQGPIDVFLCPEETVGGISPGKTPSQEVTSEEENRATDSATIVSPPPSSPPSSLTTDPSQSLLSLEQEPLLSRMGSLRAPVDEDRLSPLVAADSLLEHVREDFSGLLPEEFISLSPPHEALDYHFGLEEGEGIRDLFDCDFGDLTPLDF
Sequence of E2F1/Dp-1 heterodimer (Q14186 whole entry, further chain): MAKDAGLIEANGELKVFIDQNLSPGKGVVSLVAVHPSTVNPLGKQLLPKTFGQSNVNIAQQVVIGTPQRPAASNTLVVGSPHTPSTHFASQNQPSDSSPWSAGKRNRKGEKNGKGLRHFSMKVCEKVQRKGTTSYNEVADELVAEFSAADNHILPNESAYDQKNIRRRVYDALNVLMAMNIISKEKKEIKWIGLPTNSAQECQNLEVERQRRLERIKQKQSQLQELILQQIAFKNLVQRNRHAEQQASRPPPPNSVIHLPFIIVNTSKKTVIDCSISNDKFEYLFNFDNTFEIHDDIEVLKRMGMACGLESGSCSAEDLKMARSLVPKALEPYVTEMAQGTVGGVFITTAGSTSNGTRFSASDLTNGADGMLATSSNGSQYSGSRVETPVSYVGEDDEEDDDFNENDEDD

| Molecule | Observed activity | % (/wt) [%] |
| --- | --- | --- |
| Rb R698W: Rb mutant from COSMIC database (protein, UniProt P06400 2-928, looked up, variant R698W) Retinoblastoma-associated …: PPKTPRKTAATAAAAAAEPPAPPPPPPPEEDPEQDSGPEDLPLVRLEFEETEEPDFTALCQKLKIPDHVRERAWLTWEKVSSVDGVLGGYIQKKKELWGICIFIAAVDLDEMSFTFTELQKNIEISVHKFFNLLKEIDTSTKVDNAMSRLLKKYDVLFALFSKLERTCELIYLTQPSSSISTEINSALVLKVSWITFLLAKGEVLQMEDDLVISFQLMLCVLDYFIKLSPPMLLKEPYKTAVIPINGSPRTPRRGQNRSARIAKQLENDTRIIEVLCKEHECNIDEVKNVYFKNFIPFMNSLGLVTSNGLPEVENLSKRYEEIYLKNKDLDARLFLDHDKTLQTDSIDSFETQRTPRKSNLDEEVNVIPPHTPVRTVMNTIQQLMMILNSASDQPSENLISYFNNCTVNPKESILKRVKDIGYIFKEKFAKAVGQGCVEIGSQRYKLGVRLYYRVMESMLKSEEERLSIQNFSKLLNDNIFHMSLLACALEVVMATYSRSTSQNLDSGTDLSFPWILNVLNLKAFDFYKVIESFIKAEGNLTREMIKHLERCEHRIMESLAWLSDSPLFDLIKQSKDREGPTDHLESACPLNLPLQNNHTAADMYLSPVRSPKKKGSTTRVNSTANAETQATSAFQTQKPLKSTSLSLFYKKVYRLAYLRLNTLCERLLSEHPELEHIIWTLFQHTLQNEYELMRDWHLDQIMMCSMYGICKVKNIDLKFKIIVTAYKDLPHAVQETFKRVLIKEEEYDSIIVFYNSVFMQRLKTNILQYASTRPPTLSPIPHIPRSPYKFPSSPLRIPGGNIYISPLKSPYKISEGLPTPTKMTPRSRILVSIGESFGTSEKFQKINQMVCNSDRVLKRSAEGSNPPKPLKKLRFDIEGSDEADGSKHLPGESKFQQKLAEMTSTRTRMQKQKMNDSMDTSNKEEK | N | 6.4 |
| Rb V654M: Rb mutant from COSMIC database (protein, UniProt P06400 2-928, looked up, variant V654M) Retinoblastoma-associated …: PPKTPRKTAATAAAAAAEPPAPPPPPPPEEDPEQDSGPEDLPLVRLEFEETEEPDFTALCQKLKIPDHVRERAWLTWEKVSSVDGVLGGYIQKKKELWGICIFIAAVDLDEMSFTFTELQKNIEISVHKFFNLLKEIDTSTKVDNAMSRLLKKYDVLFALFSKLERTCELIYLTQPSSSISTEINSALVLKVSWITFLLAKGEVLQMEDDLVISFQLMLCVLDYFIKLSPPMLLKEPYKTAVIPINGSPRTPRRGQNRSARIAKQLENDTRIIEVLCKEHECNIDEVKNVYFKNFIPFMNSLGLVTSNGLPEVENLSKRYEEIYLKNKDLDARLFLDHDKTLQTDSIDSFETQRTPRKSNLDEEVNVIPPHTPVRTVMNTIQQLMMILNSASDQPSENLISYFNNCTVNPKESILKRVKDIGYIFKEKFAKAVGQGCVEIGSQRYKLGVRLYYRVMESMLKSEEERLSIQNFSKLLNDNIFHMSLLACALEVVMATYSRSTSQNLDSGTDLSFPWILNVLNLKAFDFYKVIESFIKAEGNLTREMIKHLERCEHRIMESLAWLSDSPLFDLIKQSKDREGPTDHLESACPLNLPLQNNHTAADMYLSPVRSPKKKGSTTRVNSTANAETQATSAFQTQKPLKSTSLSLFYKKMYRLAYLRLNTLCERLLSEHPELEHIIWTLFQHTLQNEYELMRDRHLDQIMMCSMYGICKVKNIDLKFKIIVTAYKDLPHAVQETFKRVLIKEEEYDSIIVFYNSVFMQRLKTNILQYASTRPPTLSPIPHIPRSPYKFPSSPLRIPGGNIYISPLKSPYKISEGLPTPTKMTPRSRILVSIGESFGTSEKFQKINQMVCNSDRVLKRSAEGSNPPKPLKKLRFDIEGSDEADGSKHLPGESKFQQKLAEMTSTRTRMQKQKMNDSMDTSNKEEK | A | 132 |
| Rb R621S: Rb mutant from COSMIC database (protein, UniProt P06400 2-928, looked up, variant R621S) Retinoblastoma-associated …: PPKTPRKTAATAAAAAAEPPAPPPPPPPEEDPEQDSGPEDLPLVRLEFEETEEPDFTALCQKLKIPDHVRERAWLTWEKVSSVDGVLGGYIQKKKELWGICIFIAAVDLDEMSFTFTELQKNIEISVHKFFNLLKEIDTSTKVDNAMSRLLKKYDVLFALFSKLERTCELIYLTQPSSSISTEINSALVLKVSWITFLLAKGEVLQMEDDLVISFQLMLCVLDYFIKLSPPMLLKEPYKTAVIPINGSPRTPRRGQNRSARIAKQLENDTRIIEVLCKEHECNIDEVKNVYFKNFIPFMNSLGLVTSNGLPEVENLSKRYEEIYLKNKDLDARLFLDHDKTLQTDSIDSFETQRTPRKSNLDEEVNVIPPHTPVRTVMNTIQQLMMILNSASDQPSENLISYFNNCTVNPKESILKRVKDIGYIFKEKFAKAVGQGCVEIGSQRYKLGVRLYYRVMESMLKSEEERLSIQNFSKLLNDNIFHMSLLACALEVVMATYSRSTSQNLDSGTDLSFPWILNVLNLKAFDFYKVIESFIKAEGNLTREMIKHLERCEHRIMESLAWLSDSPLFDLIKQSKDREGPTDHLESACPLNLPLQNNHTAADMYLSPVRSPKKKGSTTSVNSTANAETQATSAFQTQKPLKSTSLSLFYKKVYRLAYLRLNTLCERLLSEHPELEHIIWTLFQHTLQNEYELMRDRHLDQIMMCSMYGICKVKNIDLKFKIIVTAYKDLPHAVQETFKRVLIKEEEYDSIIVFYNSVFMQRLKTNILQYASTRPPTLSPIPHIPRSPYKFPSSPLRIPGGNIYISPLKSPYKISEGLPTPTKMTPRSRILVSIGESFGTSEKFQKINQMVCNSDRVLKRSAEGSNPPKPLKKLRFDIEGSDEADGSKHLPGESKFQQKLAEMTSTRTRMQKQKMNDSMDTSNKEEK | A | 124 |
| Rb E440K: Rb mutant from COSMIC database (protein, UniProt P06400 2-928, looked up, variant E440K) Retinoblastoma-associated …: PPKTPRKTAATAAAAAAEPPAPPPPPPPEEDPEQDSGPEDLPLVRLEFEETEEPDFTALCQKLKIPDHVRERAWLTWEKVSSVDGVLGGYIQKKKELWGICIFIAAVDLDEMSFTFTELQKNIEISVHKFFNLLKEIDTSTKVDNAMSRLLKKYDVLFALFSKLERTCELIYLTQPSSSISTEINSALVLKVSWITFLLAKGEVLQMEDDLVISFQLMLCVLDYFIKLSPPMLLKEPYKTAVIPINGSPRTPRRGQNRSARIAKQLENDTRIIEVLCKEHECNIDEVKNVYFKNFIPFMNSLGLVTSNGLPEVENLSKRYEEIYLKNKDLDARLFLDHDKTLQTDSIDSFETQRTPRKSNLDEEVNVIPPHTPVRTVMNTIQQLMMILNSASDQPSENLISYFNNCTVNPKESILKRVKDIGYIFKEKFAKAVGQGCVKIGSQRYKLGVRLYYRVMESMLKSEEERLSIQNFSKLLNDNIFHMSLLACALEVVMATYSRSTSQNLDSGTDLSFPWILNVLNLKAFDFYKVIESFIKAEGNLTREMIKHLERCEHRIMESLAWLSDSPLFDLIKQSKDREGPTDHLESACPLNLPLQNNHTAADMYLSPVRSPKKKGSTTRVNSTANAETQATSAFQTQKPLKSTSLSLFYKKVYRLAYLRLNTLCERLLSEHPELEHIIWTLFQHTLQNEYELMRDRHLDQIMMCSMYGICKVKNIDLKFKIIVTAYKDLPHAVQETFKRVLIKEEEYDSIIVFYNSVFMQRLKTNILQYASTRPPTLSPIPHIPRSPYKFPSSPLRIPGGNIYISPLKSPYKISEGLPTPTKMTPRSRILVSIGESFGTSEKFQKINQMVCNSDRVLKRSAEGSNPPKPLKKLRFDIEGSDEADGSKHLPGESKFQQKLAEMTSTRTRMQKQKMNDSMDTSNKEEK | R | 47 |
| Rb L665R: Rb mutant from COSMIC database (protein, UniProt P06400 2-928, looked up, variant L665R) Retinoblastoma-associated …: PPKTPRKTAATAAAAAAEPPAPPPPPPPEEDPEQDSGPEDLPLVRLEFEETEEPDFTALCQKLKIPDHVRERAWLTWEKVSSVDGVLGGYIQKKKELWGICIFIAAVDLDEMSFTFTELQKNIEISVHKFFNLLKEIDTSTKVDNAMSRLLKKYDVLFALFSKLERTCELIYLTQPSSSISTEINSALVLKVSWITFLLAKGEVLQMEDDLVISFQLMLCVLDYFIKLSPPMLLKEPYKTAVIPINGSPRTPRRGQNRSARIAKQLENDTRIIEVLCKEHECNIDEVKNVYFKNFIPFMNSLGLVTSNGLPEVENLSKRYEEIYLKNKDLDARLFLDHDKTLQTDSIDSFETQRTPRKSNLDEEVNVIPPHTPVRTVMNTIQQLMMILNSASDQPSENLISYFNNCTVNPKESILKRVKDIGYIFKEKFAKAVGQGCVEIGSQRYKLGVRLYYRVMESMLKSEEERLSIQNFSKLLNDNIFHMSLLACALEVVMATYSRSTSQNLDSGTDLSFPWILNVLNLKAFDFYKVIESFIKAEGNLTREMIKHLERCEHRIMESLAWLSDSPLFDLIKQSKDREGPTDHLESACPLNLPLQNNHTAADMYLSPVRSPKKKGSTTRVNSTANAETQATSAFQTQKPLKSTSLSLFYKKVYRLAYLRLNTRCERLLSEHPELEHIIWTLFQHTLQNEYELMRDRHLDQIMMCSMYGICKVKNIDLKFKIIVTAYKDLPHAVQETFKRVLIKEEEYDSIIVFYNSVFMQRLKTNILQYASTRPPTLSPIPHIPRSPYKFPSSPLRIPGGNIYISPLKSPYKISEGLPTPTKMTPRSRILVSIGESFGTSEKFQKINQMVCNSDRVLKRSAEGSNPPKPLKKLRFDIEGSDEADGSKHLPGESKFQQKLAEMTSTRTRMQKQKMNDSMDTSNKEEK | N | 5 |
